Measured values published in PMC5435986 (Nucleic Acids Research, 2017).

Legend:
Assay in all cases: ITC
[1] = target: KIX domain of CREB-binding protein (CBP), residues 586–672 (UniProt P45481 586-672)
[2] = target: Y650A/A654Q/Y658V triple CBPKIX mutant (UniProt P45481 586-672, Y650A | A654Q | Y658V)
[3] = target: F612A/D622A/R624A/K667E quadruple CBPKIX mutant (UniProt P45481 586-672, F612A | D622A | R624A | K667E)
F612A/D622A/R624A/K667E quadruple CBPKIX mutant, sequence (P45481 586-672 F612A/D622A/R624A/K667E): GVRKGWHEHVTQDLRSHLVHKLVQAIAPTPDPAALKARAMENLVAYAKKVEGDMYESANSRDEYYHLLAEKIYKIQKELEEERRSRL

KIX domain of CREB-binding protein (CBP), residues 586–672, sequence (P45481 586-672): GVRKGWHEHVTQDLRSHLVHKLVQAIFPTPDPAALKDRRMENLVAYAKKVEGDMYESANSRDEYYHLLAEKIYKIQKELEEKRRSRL
Y650A/A654Q/Y658V triple CBPKIX mutant, sequence (P45481 586-672 Y650A/A654Q/Y658V): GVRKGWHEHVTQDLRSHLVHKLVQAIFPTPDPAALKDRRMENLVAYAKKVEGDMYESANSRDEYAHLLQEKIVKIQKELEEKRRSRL

Binder | Kd [1] [µM] | Kd [2] [µM] | fold decrease in affinity against wild-type CBPKIX [3] [fold] | fold decrease in affinity against wild-type p65TA1 [1] [fold]
PGYPNGLLSGDEDFSSIADMDFSALLSQISS (peptide, UniProt Q04206 521-551, looked up) [transactivation domain 1 (TA1) of the p65 subunit of NF-κB, residues 521–551, L523Y] | 15 ± 3 | 13 ± 2 | ≥ 100 | –
PGYPNGLLSGDEDFSSIADMDFSALASQISS (peptide, UniProt Q04206 521-551, looked up) [L546A mutant of p65TA1] | – | – | – | ~1.5
PGYPNGLLSGDEDFSSIADMDFSAALSQISS (peptide, UniProt Q04206 521-551, looked up) [L545A mutant of p65TA1] | – | – | – | ~1.5
PGYPNGLLSGDEDFSSIADMDASALLSQISS (peptide, UniProt Q04206 521-551, looked up) [F542A mutant of p65TA1] | – | – | – | ≥ 100
